The results in this text go back to paper PMC6351632.

One may read the stoichiometry N as a count of units in the complex or per binding partner.

This assay has as its target Fasciola hepatica Sigma class glutathione transferase 1 (Fasciola hepatica). Description: crystal structure; FhGST-S1 with glutathione (holo/CGL and GSSG complexes), microbatch, 0.15 M KBr, 20% PEG 3350; space group P212121, two subunits forming a dimer related by a molecular dyad.

With “Fasciola hepatica Sigma class glutathione transferase 1 (enzyme)”, the stoichiometry N was determined as 2.
